Numbered stars: 1 amine (or outer) side, 2 acyl side, 3 side chain; on linkers, the order of the positions; unused ones are H or OH. Bridge positions count the residues as written; N and C are the ends. Side chains are listed from the residue outwards. Ends that are not written are not given here. * marks the point of attachment. C20 diacid = O=C(O)CCCCCCCCCCCCCCCCCCC(=O)*; γGlu = O=C(O)[C@H](CCC(=O)[*:2])N[*:1]; AEEA = NCCOCCOCC(=O)O
Assays:
[1] = biological target: T1, human calcitonin receptor (human, UniProt P30988 25-474); assay: SPA competition on BHK cell membranes, 125I-calcitonin as radioligand (Assay VII)
T1 construct: whole, on cells; Used as cell membranes; also called hCTR; hCT
T1 sequence (looked up): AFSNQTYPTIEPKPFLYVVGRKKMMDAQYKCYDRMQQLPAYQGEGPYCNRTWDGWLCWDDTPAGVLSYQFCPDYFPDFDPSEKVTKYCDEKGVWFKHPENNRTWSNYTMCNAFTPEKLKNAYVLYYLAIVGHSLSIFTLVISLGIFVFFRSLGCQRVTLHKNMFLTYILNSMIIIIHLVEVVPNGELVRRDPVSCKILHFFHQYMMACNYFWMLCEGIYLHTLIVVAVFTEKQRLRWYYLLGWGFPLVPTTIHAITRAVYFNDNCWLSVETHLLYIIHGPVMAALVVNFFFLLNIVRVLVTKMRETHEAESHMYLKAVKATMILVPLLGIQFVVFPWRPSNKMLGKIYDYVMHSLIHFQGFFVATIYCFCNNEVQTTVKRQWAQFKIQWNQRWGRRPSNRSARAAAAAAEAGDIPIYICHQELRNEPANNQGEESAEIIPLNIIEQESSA
Procedure: Membranes were prepared in the following way; the cells were rinsed with PBS and incubated with Versene for approximately 5 min before harvesting. The cells were flushed with PBS and the cell-suspension was centrifuged for 5 min at 1000 rpm. Cells were homogenized (Ultrathurrax) in a buffer containing 20 mM Na-HEPES and 10 mM EDTA (pH 7.4) and centrifuged at 20.000 rpm for 15 min. The resulting pellet was resuspended, homogenized and centrifuged (20.000 rpm, 15 min) in a buffer containing 20 mM Na-HEPES and 0.1 mM EDTA (pH 7.4, buffer 2). The resulting pellet was resuspended in buffer 2 and protein concentration was measured (BCA protein Assay, Pierce). The homogenate was kept cold during the whole procedure. The membranes were kept at −80° C. until use. Assay was performed in a 384 well Optiplate (PerkinElmer) in a total volume of 40 ul. Membranes were mixed with SPA beads. Final concentration of membranes 35 ng/μL final and Final concentration of SPA beads was 0.05 mg/well. Test-compounds were dissolved in DMSO and further diluted in assay buffer (50 mM Hepes, pH 7.4, 1 mM CaCl2, 5 mM MgCl₂, 0.1% OA and 0.02% Tween20). […] The final mixture was incubated for 120 min with shaking at 400 rpm at 25° C. prior to centrifugation (1500 rpm, 10 min). Samples were analyzed on TopCounter™ (Packard). The […] was calculated using (one site binding competition analysis) GraphPad Prism5 as a measure of receptor affinity.

[2] = biological target: T1, human calcitonin receptor; assay: ratio of hCTR IC50 to hAmylin-R IC50 (reference: human amylin receptor)
Procedure: The resulting pellet was resuspended, homogenized and centrifuged (20.000 rpm, 15 min) in a buffer containing 20 mM Na-HEPES and 0.1 mM EDTA (pH 7.4, buffer 2). The resulting pellet was resuspended in buffer 2 and protein concentration was measured (BCA protein Assay, Pierce). The homogenate was kept cold during the whole procedure. The membranes were kept at −80° C. until use. The assay was performed in a 384 well Optiplate (PerkinElmer) in a total volume of 40 ul. Membranes were mixed with SPA beads. Final concentration of membranes 35 ng/μL final and SPA beads was 0.05 mg/well. Test-compounds were dissolved in DMSO and further diluted in assay buffer (50 mM Hepes, pH 7.4, 1 mM CaCl2, 5 mM MgCl₂, 0.1% OA and 0.02% Tween20). […] The final mixture was incubated with shaking at 400 rpm for 120 min at 25° C. prior to centrifugation (1500 rpm, 10 min). Samples were analyzed on TopCounter™ (Packard). The IC₅₀ was calculated using (one site binding competition analysis) GraphPad Prism5 as a measure of receptor affinity.
Membranes were prepared in the following way; the cells were rinsed with PBS and incubated with Versene for approximately 5 min before harvesting. The cells were flushed with PBS and the cell-suspension was centrifuged for 5 min at 1000 rpm. Cells were homogenized (Ultrathurrax) in a buffer containing 20 mM Na-HEPES and 10 mM EDTA (pH 7.4) and centrifuged at 20.000 rpm for 15 min. The resulting pellet was resuspended, homogenized and centrifuged (20.000 rpm, 15 min) in a buffer containing 20 mM Na-HEPES and 0.1 mM EDTA (pH 7.4, buffer 2). The resulting pellet was resuspended in buffer 2 and protein concentration was measured (BCA protein Assay, Pierce). The homogenate was kept cold during the whole procedure. The membranes were kept at −80° C. until use. Assay was performed in a 384 well Optiplate (PerkinElmer) in a total volume of 40 ul. Membranes were mixed with SPA beads.

[3] = biological target: T2, human amylin 3(a) receptor (human calcitonin receptor co-expressed with RAMP-3) (human, UniProt P30988 25-474; O60896 24-148, limits assumed); assay: cell-based or functional assay
T2 sequence (looked up) 1: T1 sequence (looked up)
T2 sequence (looked up) 2: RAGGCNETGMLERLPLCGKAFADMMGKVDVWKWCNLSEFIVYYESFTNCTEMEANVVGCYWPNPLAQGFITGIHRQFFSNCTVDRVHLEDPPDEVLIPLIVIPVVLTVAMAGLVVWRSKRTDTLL

B1: N^ε1-[2-[2-[2-[[(4S)-4-carboxy-4-(19-carboxynonadecanoylamino)butanoyl]amino]ethoxy]ethoxy]acetyl]-[Arg17,Pro21,Pro27,His34]-h-amylin (peptide)
peptide: K([AEEA-γGlu-C20 diacid])CNTATCATQRLANFLRHSSPNFGAIPSSTNVGHNTY-NH2
modifications: disulfide 2-7; N-terminus assumed
SMILES: CC[C@H](C)[C@H](NC(=O)[C@H](C)NC(=O)CNC(=O)[C@H](Cc1ccccc1)NC(=O)[C@H](CC(N)=O)NC(=O)[C@@H]1CCCN1C(=O)[C@H](CO)NC(=O)[C@H](CO)NC(=O)[C@H](Cc1c[nH]cn1)NC(=O)[C@H](CCCNC(=N)N)NC(=O)[C@H](CC(C)C)NC(=O)[C@H](Cc1ccccc1)NC(=O)[C@H](CC(N)=O)NC(=O)[C@H](C)NC(=O)[C@H](CC(C)C)NC(=O)[C@H](CCCNC(=N)N)NC(=O)[C@H](CCC(N)=O)NC(=O)[C@@H](NC(=O)[C@H](C)NC(=O)[C@@H]1CSSC[C@H](NC(=O)[C@@H](N)CCCCNC(=O)COCCOCCNC(=O)CC[C@H](NC(=O)CCCCCCCCCCCCCCCCCCC(=O)O)C(=O)O)C(=O)N[C@@H](CC(N)=O)C(=O)N[C@@H]([C@@H](C)O)C(=O)N[C@@H](C)C(=O)N[C@@H]([C@@H](C)O)C(=O)N1)[C@@H](C)O)C(=O)N1CCC[C@H]1C(=O)N[C@@H](CO)C(=O)N[C@@H](CO)C(=O)N[C@H](C(=O)N[C@@H](CC(N)=O)C(=O)N[C@H](C(=O)NCC(=O)N[C@@H](Cc1c[nH]cn1)C(=O)N[C@@H](CC(N)=O)C(=O)N[C@H](C(=O)N[C@@H](Cc1ccc(O)cc1)C(N)=O)[C@@H](C)O)C(C)C)[C@@H](C)O
notes: also called compound 76
IC50 [1]: 17.2 nM
Ratio hCT/hAmylin binding [2]: 80

B2: N^ε1-[2-[2-[2-(19-carboxynonadecanoylamino)ethoxy]ethoxy]acetyl]-[His14,Arg17,Pro21,Pro27]-h-amylin (peptide)
peptide: K([AEEA-C20 diacid])CNTATCATQRLAHFLRHSSPNFGAIPSSTNVGSNTY-NH2
modifications: disulfide 2-7; N-terminus assumed
SMILES: CC[C@H](C)[C@H](NC(=O)[C@H](C)NC(=O)CNC(=O)[C@H](Cc1ccccc1)NC(=O)[C@H](CC(N)=O)NC(=O)[C@@H]1CCCN1C(=O)[C@H](CO)NC(=O)[C@H](CO)NC(=O)[C@H](Cc1c[nH]cn1)NC(=O)[C@H](CCCNC(=N)N)NC(=O)[C@H](CC(C)C)NC(=O)[C@H](Cc1ccccc1)NC(=O)[C@H](Cc1c[nH]cn1)NC(=O)[C@H](C)NC(=O)[C@H](CC(C)C)NC(=O)[C@H](CCCNC(=N)N)NC(=O)[C@H](CCC(N)=O)NC(=O)[C@@H](NC(=O)[C@H](C)NC(=O)[C@@H]1CSSC[C@H](NC(=O)[C@@H](N)CCCCNC(=O)COCCOCCNC(=O)CCCCCCCCCCCCCCCCCCC(=O)O)C(=O)N[C@@H](CC(N)=O)C(=O)N[C@@H]([C@@H](C)O)C(=O)N[C@@H](C)C(=O)N[C@@H]([C@@H](C)O)C(=O)N1)[C@@H](C)O)C(=O)N1CCC[C@H]1C(=O)N[C@@H](CO)C(=O)N[C@@H](CO)C(=O)N[C@H](C(=O)N[C@@H](CC(N)=O)C(=O)N[C@H](C(=O)NCC(=O)N[C@@H](CO)C(=O)N[C@@H](CC(N)=O)C(=O)N[C@H](C(=O)N[C@@H](Cc1ccc(O)cc1)C(N)=O)[C@@H](C)O)C(C)C)[C@@H](C)O
notes: also called compound 90
IC50 [1]: 2.57 nM
Ratio hCT/hAmylin binding [2]: 42.2

B3: N^ε1-[(4S)-4-carboxy-4-(19-carboxynonadecanoylamino)butanoyl]-[Arg17,Pro21,Pro27]-h-amylin (peptide)
peptide: K([γGlu-C20 diacid])CNTATCATQRLANFLRHSSPNFGAIPSSTNVGSNTY-NH2
modifications: disulfide 2-7; N-terminus assumed
SMILES: CC[C@H](C)[C@H](NC(=O)[C@H](C)NC(=O)CNC(=O)[C@H](Cc1ccccc1)NC(=O)[C@H](CC(N)=O)NC(=O)[C@@H]1CCCN1C(=O)[C@H](CO)NC(=O)[C@H](CO)NC(=O)[C@H](Cc1c[nH]cn1)NC(=O)[C@H](CCCNC(=N)N)NC(=O)[C@H](CC(C)C)NC(=O)[C@H](Cc1ccccc1)NC(=O)[C@H](CC(N)=O)NC(=O)[C@H](C)NC(=O)[C@H](CC(C)C)NC(=O)[C@H](CCCNC(=N)N)NC(=O)[C@H](CCC(N)=O)NC(=O)[C@@H](NC(=O)[C@H](C)NC(=O)[C@@H]1CSSC[C@H](NC(=O)[C@@H](N)CCCCNC(=O)CC[C@H](NC(=O)CCCCCCCCCCCCCCCCCCC(=O)O)C(=O)O)C(=O)N[C@@H](CC(N)=O)C(=O)N[C@@H]([C@@H](C)O)C(=O)N[C@@H](C)C(=O)N[C@@H]([C@@H](C)O)C(=O)N1)[C@@H](C)O)C(=O)N1CCC[C@H]1C(=O)N[C@@H](CO)C(=O)N[C@@H](CO)C(=O)N[C@H](C(=O)N[C@@H](CC(N)=O)C(=O)N[C@H](C(=O)NCC(=O)N[C@@H](CO)C(=O)N[C@@H](CC(N)=O)C(=O)N[C@H](C(=O)N[C@@H](Cc1ccc(O)cc1)C(N)=O)[C@@H](C)O)C(C)C)[C@@H](C)O
notes: also called compound 48
Ratio hCT/hAmylin funct. (hCTR EC50 over hAmylin-R EC50) [3]: 17
hAmylin-R funct. EC50 (pM) [3]: 116 pM

B4: N^ε-[2-[2-[2-[[(4S)-4-carboxy-4-(19-carboxynonadecanoylamino)butanoyl]amino]ethoxy]ethoxy]acetyl]Lys[Arg1,Arg17,Pro21,Pro27,His35]-h-amylin (peptide)
peptide: K([AEEA-γGlu-C20 diacid])RCNTATCATQRLANFLRHSSPNFGAIPSSTNVGSHTY-NH2
modifications: disulfide 3-8; N-terminus assumed
SMILES: CC[C@H](C)[C@H](NC(=O)[C@H](C)NC(=O)CNC(=O)[C@H](Cc1ccccc1)NC(=O)[C@H](CC(N)=O)NC(=O)[C@@H]1CCCN1C(=O)[C@H](CO)NC(=O)[C@H](CO)NC(=O)[C@H](Cc1c[nH]cn1)NC(=O)[C@H](CCCNC(=N)N)NC(=O)[C@H](CC(C)C)NC(=O)[C@H](Cc1ccccc1)NC(=O)[C@H](CC(N)=O)NC(=O)[C@H](C)NC(=O)[C@H](CC(C)C)NC(=O)[C@H](CCCNC(=N)N)NC(=O)[C@H](CCC(N)=O)NC(=O)[C@@H](NC(=O)[C@H](C)NC(=O)[C@@H]1CSSC[C@H](NC(=O)[C@H](CCCNC(=N)N)NC(=O)[C@@H](N)CCCCNC(=O)COCCOCCNC(=O)CC[C@H](NC(=O)CCCCCCCCCCCCCCCCCCC(=O)O)C(=O)O)C(=O)N[C@@H](CC(N)=O)C(=O)N[C@@H]([C@@H](C)O)C(=O)N[C@@H](C)C(=O)N[C@@H]([C@@H](C)O)C(=O)N1)[C@@H](C)O)C(=O)N1CCC[C@H]1C(=O)N[C@@H](CO)C(=O)N[C@@H](CO)C(=O)N[C@H](C(=O)N[C@@H](CC(N)=O)C(=O)N[C@H](C(=O)NCC(=O)N[C@@H](CO)C(=O)N[C@@H](Cc1c[nH]cn1)C(=O)N[C@H](C(=O)N[C@@H](Cc1ccc(O)cc1)C(N)=O)[C@@H](C)O)C(C)C)[C@@H](C)O
notes: 38 residues; also called compound 45
Ratio hCT/hAmylin funct. (hCTR EC50 over hAmylin-R EC50) [3]: 17
hAmylin-R funct. EC50 (pM) [3]: 594 pM

Source: US20140087995A1 (published 2014)
